Assay [1] deals with T1, human Claudin 18.2 (human, UniProt P56856-2 1-261).
T1 construct: whole, on cells
T1 sequence (looked up): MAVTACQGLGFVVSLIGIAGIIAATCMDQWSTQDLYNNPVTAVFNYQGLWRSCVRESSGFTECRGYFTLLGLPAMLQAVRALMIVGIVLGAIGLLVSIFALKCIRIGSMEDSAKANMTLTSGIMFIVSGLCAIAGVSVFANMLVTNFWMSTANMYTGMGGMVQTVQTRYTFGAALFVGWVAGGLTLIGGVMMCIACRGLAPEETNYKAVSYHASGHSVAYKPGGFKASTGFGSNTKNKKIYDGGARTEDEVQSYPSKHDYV
As to the kind of experiment: flow cytometry (iQue) on cells, antibody from 100 nM in 5-fold steps; cell line not named in Example 5. The procedure: The cells at logarithmic growth phase were taken, blocked with 3% BSA for 30 minutes, plated at 5×10⁴ cells/100 μL into a U-shaped 96-well plate, centrifuged at 1100 rpm for 3 minutes, the supernatant was discarded, the cells were gently patted and loosed, 50 μL of antibody diluted according to the series was added to each well (antibody concentration starts from 100 nM, 5 times dilution in 8 series), incubated at 4° C. for 1 hour. After the incubation, 140 μL of 0.5% BSA was added to each well to wash 3 times, AF 647 APC anti-human secondary antibody was added with 30 μL/well and incubated at 4° C. for 40 minutes. After the incubation, 140 μL of 0.5% BSA was added to each well to wash 3 times, and finally resuspended each well with 50 μL PBS for iQue (Intellicyt, USA) detection (shown in Table 2).
A general note: Flow cytometry measures light scatter and fluorescence of single cells or particles in a stream.

For the next assay, the target named is T2, human Claudin 18.1 (human, UniProt P56856 1-261).
T2 construct: whole, on cells
T2 sequence (looked up): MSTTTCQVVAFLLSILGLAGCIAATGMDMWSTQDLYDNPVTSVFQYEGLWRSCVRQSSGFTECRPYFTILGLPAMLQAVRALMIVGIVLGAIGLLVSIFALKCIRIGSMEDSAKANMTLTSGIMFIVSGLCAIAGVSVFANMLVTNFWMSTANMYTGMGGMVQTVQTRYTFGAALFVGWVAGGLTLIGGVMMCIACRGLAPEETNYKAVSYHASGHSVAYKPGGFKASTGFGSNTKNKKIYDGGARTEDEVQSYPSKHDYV
As to the kind of experiment: flow cytometry on HEK293-Claudin 18.1 cells, chimeric IgG1. The procedure: (§1) The HEK293-Claudin 18.1 cells, HEK293-Claudin 18.2 cells and HEK293 cells at logarithmic growth phase were taken, after digesting, added at 5×10⁴ cells/100 μL to the U-shaped 96-well plate, centrifuged at 1100 rpm for 3 minutes, the supernatant was discarded, the cells were gently patted and loosed, 50 μL of antibody diluted according to the series was added to each well (antibody concentration starts from 100 nM, 5 times dilution in 8 series), and incubate at 4° C. for 1 hour. After the incubation, 140 μL 0.5% BSA was added to each well to wash 3 times, the secondary antibody AlexaFluro647 anti-human IgG (Jackson ImmunoResearch, catalog number: 109-606-170) was added with 30 μL/well, and incubated at 4° C. for 40 minutes. After the incubation, 140 μL 0.5% BSA was added to each well to wash 3 times, and finally resuspended each well with 50 μL PBS for flow cytometry (iQue Screener) detection.

Assay [2] has as its target T1, human Claudin 18.2. As to the kind of experiment: flow cytometry (iQue) on HEK293-Claudin 18.2 cells, chimeric IgG1. The procedure:
as §1

We go through twelve molecules from patent US20220372112A1 (KEYMED BIOSCIENCES, published 2022).

As usually defined, the EC50 is the concentration that produces a half-maximal response.

B1: 15F9 (antibody, V domains shown)
VH: EIQLVQSGPELKKPGETVKISCKASGYTFTNYGINWVKQAPGKGLKWMGWINPNTGETTYAEEFKGRFALSWKTSASTAYLQINNLKNEDTATYFCARLYYGNRFDYWGQGTTLTVSS
VL: DIVMTQSPSSLTVTAGEKVTMSCKSSQSLLNSGNQRNYLTWYQQKPGQPPKLLIYWASTRESGVPDRFTGSGSGTDFTLTISSVQAEDLAVYYCQNAYYYPLTFGAGTKLEIK
notes: also called Clone 15F9; 15F9 Chimera
As to B1, the EC50 with human Claudin 18.2 [1] worked out at 3320 pM; in the assay with human Claudin 18.2 [2] it was 170 pM. The binding result in the assay with human Claudin 18.1 is recorded as “no binding (tested: 100 nM (highest concentration tested))”.

B2: 19B2 (antibody, V domains shown)
VH: QVQLQQSGAELVKPGTSVKLSCKASGYSFTTYGLNWVRQRPKQGLEWIGWIFPGDGNVNYNEKFQGQATLTTDKSSSTAYMQLSRLTSEDSAVYFCARFYYGNSLNYWGQGTLVTVSA
VL: DIVMTQSPSSLTVTAGEKVTMSCKSSQSLLNSGNLRNYLTWYQQKPGRPPKLLIYWASTRESGVPDRFTGSGSGTDFTLTISSVQAEDLAVYYCQNNYFYPLTFGAGTKLEIK
notes: also called Clone 19B2
As for B2, in the assay with human Claudin 18.1, the binding result is listed as “no binding (tested: 100 nM (highest concentration tested))”. The molecule also gave an EC50 with human Claudin 18.2 [2] of 200 pM.

B3: 14H11 (antibody, V domains shown)
VH: EVQLVESGGGLVKPGGSLKLSCAVSGFTINNYGMSWVRQTPEKRLEWVATIIGGGSSTYYPDSLKGRFTISRDNAKNNLYLQMSSLRSEDTALYYCVRLYFGNSFAYWGQGTLVTVSA
VL: DIVMTQSPSSLTVTAGEKVTVSCKSSQSLSNSGNQRNYLTWYQQKPGQPPKLLIYWASTRESGVPDRFTGSGSGTDFTLTISSVQAEDLAVYYCQNNYFYPLTFGAGTKLELK
notes: also called Clone 14H11
Regarding B3, the binding result with human Claudin 18.1 is “no binding (tested: 100 nM (highest concentration tested))”. The molecule also showed an EC50 in the assay with human Claudin 18.2 [2] of 220 pM.

B4: 18A9 (antibody, V domains shown)
VH: QVQLQQSGREVVRPGTSVKVSCKPSGYAFTNYLIDWVKQRPGQGLEWIGGINPGSGDTVYNEKFKAKATLTADKSSMTANMQLSSLTSDDSAVYFCARRVRGNSFDSWGQGTLVTVSA
VL: DIVMSQSPSSLTVTAGEKVTMSCKSSQSLLNSGNQKNYLTWYQQKPGQPPKLLIYWASTRESGVPDRFTGSGSGKDFTLTISSVQAEDLALYYCQNNYFYPLTFGAGTKLELK
notes: also called Clone 18A9; 18A9 Chimera
As to B4, the 50% effective concentration (EC50) with human Claudin 18.2 [1] was 1030 pM; in the assay with human Claudin 18.2 [2], 310 pM. Moreover, the binding result in the assay with human Claudin 18.1 is on record as “no binding (tested: 100 nM (highest concentration tested))”.

B5: 18G5 (antibody, V domains shown)
VH: EVQLQQSGREVVRPGTSVKVSCKPSGYAFTNYLIDWVKQRPGQGLEWIGGINPGSGDTVYNEKFKAKATLTADKSSMTTNMQLSSLTSDDSAVYFCARRVRGNSFDSWGQGTLVTVSA
VL: DIVMTQSPSSLTVRAGEKVTMTCKSSQSLFNSGNQRNYLTWYQQKPGQPPKLLLYWATARESGVPDRFTGSGSGTDFTLSISSVQAEDLAVYYCQNVYFYPLTFGAGTKLEIK
notes: also called Clone 18G5
In the case of B5, the binding result in the assay with human Claudin 18.1 is given as “no binding (tested: 100 nM (highest concentration tested))”. Moreover, in the assay with human Claudin 18.2 [2], the concentration for a half-maximal effect (EC50) came to 3790 pM.

B6: 15A7 (antibody, V domains shown)
VH: QVQLQQSGAELVKPGYSVKLSCKASGYTFTNFGINWVRQRPEKGLEWIGWIFPGDGTTKYNENFKGKATLTTDKSSSTAYMQLSRLTSEDSAVYFCARFYYGNSFVNWGQGTLVTVSA
VL: DIVMTQSPSSLTVTAGEKVTLSCKSSQTLLNSGNQKNYLTWYQQKPGQPPKLLIHWASTRESGVPDRFTGSGSGTDFTLTISSVQAEDLAVYYCQNNYFYPLTFGAGTKLEIK
notes: also called Clone 15A7
Take B6: the binding result with human Claudin 18.1 is recorded as “no binding (tested: 100 nM (highest concentration tested))”. The same molecule registered an EC50 with human Claudin 18.2 [2] of 590 pM.

B7: 13A8 (antibody, V domains shown)
VH: EVKLVESGGGLVRPGGSLKVSCAASGITFSRYAISWVRQTPEKRLEWVATISSGDSYTYYLDSVKGRFTISRDDAKNTLYLQMSSLRSEDTAMYYCGRLGYGNAMDYWGQGTSVTVSS
VL: NIMMTQSPSSLTVTAGEKVTMSCKSSQSLLNSGNQKNYLTWYQQKPGQPPKLLIYWASTRESGVPDRFTGSGSGTDFTLTISSVQAEDLAVYYCQNDYSYPLTFGAGTKLEIK
notes: also called Clone 13A8
Consider B7, for which, in the assay with human Claudin 18.1, the binding result is “no binding (tested: 100 nM (highest concentration tested))”. The molecule further gave an EC50 with human Claudin 18.2 [2] of 250 pM.

B8: 25F5 (antibody, V domains shown)
VH: QVQLKQSGAELVKPGASLKLSCKASGYTFTTYGINWVRQRPEQGLEWIGWIFPGDATTMYNEKFKGTATLTADKSSSTAYMQLSGLTSEDSAVYFCARFYYGNSFVDWGQGTLVTVSA
VL: DIVMTQSPSSLTVTAGEKVTMSCKSSQSLLNSGNQKNYLTWYQQKPGQPPKLLIYWASTRESGVPDRFTGSGSGTDFTLTISSVQAEDLAVYYCQNAYYYPLTFGAGTKLEIK
notes: also called Clone 25F5
As for B8, the binding result with human Claudin 18.1 is reported as “no binding (tested: 100 nM (highest concentration tested))”. In the assay with human Claudin 18.2 [2], this molecule returned an EC50 of 2140 pM.

B9: 18D10 (antibody, V domains shown)
VH: DVQLQESGPGLVKPSQSLSLTCTVTGYSITSNYAWNWIRQFPGNKLEWMGYINYSGNTNYNPSLKSRISITRDTSKNQFFLQLNSVTAEDTATYYCATSYYGNSFIYWGQGTLVTVSA
VL: DIVMTQSPSSLTVTAGEKVTMSCKSSQSLLNSGNQKNYLTWYQQKPGQPPKLLIYWASTRESGVPDRFTGSGSGTDFTLTISSVQAEDLAVYYCQNAYSFPWTFGGGTKLEIK
notes: also called Clone 18D10; 18D10 Chimera
For the molecule B9, the EC50 with human Claudin 18.2 [1] amounted to 2070 pM; in the assay with human Claudin 18.2 [2] it was 370 pM. Further, in the assay with human Claudin 18.1, the binding result is “no binding (tested: 100 nM (highest concentration tested))”.

B10: 9D12 (antibody, V domains shown)
VH: EVQLQQSGREVVRPGTSVKVSCKPSGYAFTNYLIDWVKQRPGQGLEWIGGINPGSGDTVYNERFKDKATLTADKSSSSANMQLSSLTSDDSAVYFCARRVRGNSFDSWGQGTLVTVSA
VL: DIVMTQSPSSLTVTAGQKVTMSCKSSQSLLNSGNQKNYLTWYQQKPGQPPKLLIYWASTRESGVPDRFTGSGSGKDFTLTISSVQAEDLAVFYCQNNYFYPLTFGAGTKLELK
notes: also called Clone 9D12
Consider B10, for which the binding result with human Claudin 18.1 was “no binding (tested: 100 nM (highest concentration tested))”. The same molecule had an EC50 with human Claudin 18.2 [2] of 6780 pM.

B11: 9A8 (antibody, V domains shown)
VH: QVQLQQSGREVVRPGTSVKVSCKPSGYAFTNYLIDWVKQRPGQGLEWIGGINPGSGDTVYNEKFKAKATLTADKSSMTANMQLSSLTSDDSAVYFCARRVRGNSFDSWGQGTLVTVSA
VL: DIQMTQSPSSLTVTAGEKVTMSCKSSQSLLNSGNQRNYLTWYQQKTGQPPKLLIYWASTRESGVPDRFTGSGSGTDFTLTINSVQAEDLAVYYCQNNYYYPLTFGAGTKLEIK
notes: also called Clone 9A8
As to B11, in the assay with human Claudin 18.1, the binding result is “no binding (tested: 100 nM (highest concentration tested))”. In the assay with human Claudin 18.2 [2], this molecule came in with an EC50 of 210 pM.

B12: 8C11 (antibody, V domains shown)
VH: QVQLQQSGAELVKPGASVKLSCKASGYTFTTFGINWVRQRPEQGLEWIGWIFPGDGSIKYNEKFKGKATLTTDKSSSTAYMQISSLTSEDSAVYFCARFYYGNSFVSWGQGTLVTVSA
VL: DIVMTQSPSSLAVTAGEKVTMTCKSSQSLLNSGNQKNYLTWYQQRPGQPPKLLLYWASTRESGVPDRFTGSGSGTDFALTITSVQAEDLAVYYCQNDYTYPFTFGSGTKLEIK
notes: also called Clone 8C11
On to B12, for which the binding result with human Claudin 18.1 was “no binding (tested: 100 nM (highest concentration tested))”. The EC50 in the assay with human Claudin 18.2 [2] came to 230 pM.
